In paper PMC4970670, “Mek1 Down Regulates Rad51 Activity during Yeast Meiosis by Phosphorylation of Hed1” (PLoS Genetics, 2016):
Substitutions are numbered along the chain they refer to.

T1: Rad51 (S. cerevisiae, UniProt P25454 1-400)
T1 construct: Rad51 recombinase of S. cerevisiae; Used as 0.6 ug of protein in the pull-down
T1 sequence (looked up): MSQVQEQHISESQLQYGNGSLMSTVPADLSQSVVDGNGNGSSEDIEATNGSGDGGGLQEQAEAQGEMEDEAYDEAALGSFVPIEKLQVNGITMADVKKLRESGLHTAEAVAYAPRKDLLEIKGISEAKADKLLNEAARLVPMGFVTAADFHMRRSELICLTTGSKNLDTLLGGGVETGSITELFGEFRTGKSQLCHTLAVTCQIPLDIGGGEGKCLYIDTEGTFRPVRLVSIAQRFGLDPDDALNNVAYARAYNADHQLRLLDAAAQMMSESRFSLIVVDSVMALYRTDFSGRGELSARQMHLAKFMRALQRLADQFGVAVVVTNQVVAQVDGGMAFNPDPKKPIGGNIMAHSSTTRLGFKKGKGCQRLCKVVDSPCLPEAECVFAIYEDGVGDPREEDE

B1: GST-Hed1 (natural protein, S. cerevisiae, UniProt Q03937 1-162, looked up)
chain: MQQRSNRRSCSYIPLGVHNNAEKSLCTEVAPARKNKRSITTSPIVNINVVERRLFNLELEKQQLRAKNLSENTGGGSPNGGAYLDAKKGVREQDQYQGGPSKELDRLQPPPSMKKSPPRKKKSLKDLIYETNKTFYQVDSNKVKYKVGLSKKQLLPSKTVDN
notes: Hed1, meiosis-specific protein of S. cerevisiae; also called GST-Hed1 WT; recombinant GST-Hed1; source: E. coli, purified
B2: GST-Hed1-3A (natural protein, S. cerevisiae, UniProt Q03937 1-162, looked up)
chain: B1 chain with T40A, T41A, S42A
notes: Hed1, meiosis-specific protein of S. cerevisiae, with T40, T41 and S42 all substituted with alanine; source: E. coli, purified

Target: T1, Rad51
Test: pull-down; GST-Hed1 WT or 3A (0.6 ug) incubated with Rad51 (0.6 ug), affinity pull-down with Glutathione Sepharose beads; supernatant, wash and SDS-eluate analysed by SDS-PAGE and Coomassie staining
Conditions: both partners purified

Binder	binding result
B1	binds
B2	binds
